From publication PMC12109034

What was measured:
[1] = target: TdPP1-T243M (durum wheat)
[2] = target: TdPP1-H135A (durum wheat)
[3] = target: 6xHis::TdPP1a (durum wheat)
[4] = target: 6xHis::TdPP1a (durum wheat); remark: listed apart in the source
[5] = target: TdPP1-H135A (durum wheat); remark: listed apart in the source
[6] = target: TdPP1-H135A (durum wheat); remark: listed apart in the source

Row | IC50 of inhibition of phosphatase activity (pNPP substrate, 37 °C, 1 μg enzyme) [1] [nM] | IC50 of inhibition of phosphatase activity (pNPP substrate, 37 °C, 1 μg enzyme) [2] [nM] | IC50 of inhibition of phosphatase activity (pNPP substrate, 37 °C, 1 μg enzyme) [3] [nM] | percent inhibition of phosphatase activity (pNPP) at three TdRL1 concentrations; 59% at 26 nM (1:1 molar ratio), highest value at the higher concentration [4] [%] | percent inhibition of phosphatase activity (pNPP) by TdRL1 at three concentrations; value at high concentrations [5] [%] | percent inhibition of phosphatase activity (pNPP) at three At-I2 concentrations; maximum at the highest concentration used [4] [%] | percent inhibition of phosphatase activity (pNPP) by At-I2 at three concentrations; highest at high concentration [6] [%] | Molecule
1 | 35.6 | 37 | 32 | 89.7 | 91 |  |  | 6xHis-MBP::TdRL1 (natural protein)
2 |  |  |  |  |  | 90.4 | 100 | GST::At-I2 (natural protein) MTEPKRGRVQWDEANIVEIESNKPVRQKITEPKTPYHPMMDDDGSLSPRGRAFDECVDDMQRAEELRNVLNDAAASSSRNSSQGSGGGGWSSSDEEEEEADPMDQDEEGSGSGKNERFNAHRKAHYDEFRKVKELRSSGSFYEEEEEEDDGAKGSKSETTTNSRHTKGGNKELDATKTVSGTSSSSSPELI
